Measurements taken from patent US20190361034A1.

Assays:
[1] = molecular target: MHC class II molecules on MHC class II-expressing Raji cells (human); assay: transfer cell ELISA, Raji cells; 250 ng/ml; plate row D
[2] = molecular target: MHC class II molecules on MHC class II-expressing Raji cells (human); assay: transfer cell ELISA, Raji cells; 500 ng/ml; plate row C
[3] = molecular target: MHC class II molecules on MHC class II-expressing Raji cells (human); assay: transfer cell ELISA, Raji cells; 1000 ng/ml; plate row D
[4] = molecular target: MHC class II molecules on MHC class II-expressing Raji cells (human); assay: transfer cell ELISA, Raji cells; 0.977 ng/ml; plate row D
[5] = molecular target: MHC class II molecules on MHC class II-expressing Raji cells (human); assay: transfer cell ELISA, Raji cells; 1.953 ng/ml; plate row C
[6] = molecular target: MHC class II molecules on MHC class II-expressing Raji cells (human); assay: transfer cell ELISA, Raji cells; 15.63 ng/ml; plate row C
[7] = molecular target: MHC class II molecules on MHC class II-expressing Raji cells (human); assay: transfer cell ELISA, Raji cells; 15.63 ng/ml; plate row D
[8] = molecular target: MHC class II molecules on MHC class II-expressing Raji cells (human); assay: direct ELISA, plate-immobilised Raji cells; 5% BSA, 2,500 cells; 250 ng/ml
[9] = molecular target: MHC class II molecules on MHC class II-expressing Raji cells (human); assay: direct ELISA, plate-immobilised Raji cells; 10% FBS, 2,500 cells; 500 ng/ml
[10] = molecular target: MHC class II molecules on MHC class II-expressing Raji cells (human); assay: direct ELISA, plate-immobilised Raji cells; 10% FBS, 5,000 cells; 500 ng/ml
[11] = molecular target: MHC class II molecules on MHC class II-expressing Raji cells (human); assay: direct ELISA, plate-immobilised Raji cells; 5% BSA, 10,000 cells; 125 ng/ml
[12] = molecular target: MHC class II molecules on MHC class II-expressing Raji cells (human); assay: direct ELISA, plate-immobilised Raji cells; 10% FBS, 10,000 cells; 125 ng/ml
[13] = molecular target: MHC class II molecules on MHC class II-expressing Raji cells (human); assay: direct ELISA, plate-immobilised Raji cells; 5% BSA, 10,000 cells; 62.5 ng/ml
[14] = molecular target: MHC class II molecules on MHC class II-expressing Raji cells (human); assay: direct ELISA, plate-immobilised Raji cells; 10% FBS, 5,000 cells; 31.25 ng/ml
[15] = molecular target: MHC class II molecules on MHC class II-expressing Raji cells (human); assay: direct ELISA, plate-immobilised Raji cells; 10% FBS, 10,000 cells; 31.25 ng/ml
[16] = molecular target: MHC class II molecules on MHC class II-expressing Raji cells (human); assay: direct ELISA, plate-immobilised Raji cells; 5% BSA, 10,000 cells; 15.625 ng/ml
[17] = molecular target: MHC class II molecules on MHC class II-expressing Raji cells (human); assay: transfer cell ELISA, Raji cells; 500 ng/ml
[18] = molecular target: MHC class II molecules on MHC class II-expressing Raji cells (human); assay: transfer cell ELISA, Raji cells; 15.63 ng/ml
[19] = molecular target: MHC class II molecules on MHC class II-expressing Raji cells (human); assay: BLI; immobilised sample, Raji cells in solution; pH 7.0 control of FIG. 22
[20] = molecular target: MHC class II molecules on MHC class II-expressing Raji cells (human); assay: direct ELISA, plate-immobilised Raji cells; 3% gelatin, 2,500 cells; 125 ng/ml
[21] = molecular target: MHC class II molecules on MHC class II-expressing Raji cells (human); assay: direct ELISA, plate-immobilised Raji cells; 3% gelatin, 5,000 cells; 125 ng/ml
[22] = molecular target: MHC class II molecules on MHC class II-expressing Raji cells (human); assay: direct ELISA, plate-immobilised Raji cells; 0.5% Casein, 2,500 cells; 125 ng/ml
[23] = molecular target: MHC class II molecules on MHC class II-expressing Raji cells (human); assay: direct ELISA, plate-immobilised Raji cells; 0.5% Casein, 5,000 cells; 125 ng/ml
[24] = molecular target: MHC class II molecules on MHC class II-expressing Raji cells (human); assay: direct ELISA, plate-immobilised Raji cells; 3% gelatin, 5,000 cells; 1000 ng/ml
[25] = molecular target: MHC class II molecules on MHC class II-expressing Raji cells (human); assay: direct ELISA, plate-immobilised Raji cells; 0.5% Casein, 10,000 cells; 500 ng/ml
[26] = molecular target: MHC class II molecules on MHC class II-expressing Raji cells (human); assay: direct ELISA, plate-immobilised Raji cells; 0.5% Casein, 5,000 cells; 1000 ng/ml
[27] = molecular target: MHC class II molecules on MHC class II-expressing Raji cells (human); assay: direct ELISA, plate-immobilised Raji cells; 3% gelatin, 10,000 cells; 62.5 ng/ml
[28] = molecular target: MHC class II molecules on MHC class II-expressing Raji cells (human); assay: direct ELISA, plate-immobilised Raji cells; 0.5% Casein, 2,500 cells; 31.25 ng/ml
[29] = molecular target: MHC class II molecules on MHC class II-expressing Raji cells (human); assay: direct ELISA, plate-immobilised Raji cells; 0.5% Casein, 5,000 cells; 15.625 ng/ml
[30] = molecular target: MHC class II molecules on MHC class II-expressing Raji cells (human); assay: direct ELISA, plate-immobilised Raji cells; 0.5% Casein, 10,000 cells; 15.625 ng/ml
[31] = molecular target: MHC class II molecules on MHC class II-expressing Raji cells (human); assay: BLI; immobilised sample, Raji cells in solution; control of FIG. 18 (37° C., 1 day, no H2O2)
[32] = molecular target: MHC class II molecules on MHC class II-expressing Raji cells (human); assay: BLI; IMP321 sample at 125% binding potency, Raji cells in solution; relative to reference standard
[33] = molecular target: MHC class II molecules on MHC class II-expressing Raji cells (human); assay: BLI; IMP321 sample at 150% binding potency, Raji cells in solution; relative to reference standard

Substance: IMP321 treated with Peptide-N-Glycosidase F (PNGase F) (Fc fusion)
- OD (ELISA signal) [1]: 0.361 OD
- OD (ELISA signal) [2]: 0.642 OD
- OD (ELISA signal) [3]: 1.13 OD
- OD (ELISA signal) [4]: 0.01 OD
- OD (ELISA signal) [5]: 0.011 OD
- OD (ELISA signal) [6]: 0.035 OD
- OD (ELISA signal) [7]: 0.029 OD
- OD (ELISA signal) [8]: 0.893 OD
- OD (ELISA signal) [9]: 1.8 OD
- OD (ELISA signal) [10]: 1.63 OD
- OD (ELISA signal) [11]: 0.395 OD
- OD (ELISA signal) [12]: 0.377 OD
- OD (ELISA signal) [13]: 0.283 OD
- OD (ELISA signal) [14]: 0.304 OD
- OD (ELISA signal) [15]: 0.279 OD
- OD (ELISA signal) [16]: 0.366 OD

Substance: IMP321, recombinant soluble human LAG-3Ig fusion protein (Fc fusion)
- OD (ELISA signal) [17]: 1.81 OD
- OD (ELISA signal) [18]: 0.098 OD
- Bioactivity (binding) [19]: 94%
- OD (ELISA signal) [20]: 0.77 OD
- OD (ELISA signal) [21]: 0.823 OD
- OD (ELISA signal) [22]: 0.163 OD
- OD (ELISA signal) [23]: 0.197 OD
- OD (ELISA signal) [24]: 2.31 OD
- OD (ELISA signal) [25]: 0.188 OD
- OD (ELISA signal) [26]: 0.136 OD
- OD (ELISA signal) [27]: 0.417 OD
- OD (ELISA signal) [28]: 0.149 OD
- OD (ELISA signal) [29]: 0.207 OD
- OD (ELISA signal) [30]: 0.185 OD
- Bioactivity (binding) [31]: 77%
- Potency determined by BLI assay [32]: 135%
- Potency determined by BLI assay [33]: 150%
